Experimental findings from patent publication US20140011214A1 are described below.

The target of assay [1] is Antiparallel leucine zipper partner peptide Z′ fused to the C-terminal fragment of superpositive GFP (CspGFP, amino acids 158-231), expressed from pMRBAD-Z′-CspGFP. Description: cell-based or functional assay.
Assay [2] deals with Antiparallel leucine zipper partner peptide Z′ fused to the C-terminal fragment of the stabilized GFP variant sg100 (Csg100GFP), expressed from pMRBAD-Z′-Csg100GFP. As to the kind of experiment: cell-based or functional assay.

In assay [1], “N-terminal fragment of superpositive GFP (NspGFP, amino acids 1-157) fused to antiparallel leucine zipper peptide Z, expressed from pET11a-Z-NspGFP” had a cell fluorescence 1 hour after induction at 25° C., against split-frGFP Z/Z′ fusions (% more fluorescent) of 34; a cell fluorescence after 24 hours at 37° C., against split-frGFP Z/Z′ fusions (% more fluorescent) of 24; a maximum mean cell fluorescence, 12 hours at 25° C., against split-frGFP Z/Z′ fusions of 22 % brighter; a mean cell fluorescence (flow cytometry), 1 hour after induction at 25° C. of 5 fold. For the same substance, in assay [1], the mean cell fluorescence (flow cytometry), 2 hours after induction at 25° C. stood at 15 fold; the mean cell fluorescence (flow cytometry), 3 hours after induction at 25° C. came out at 28 fold; the mean cellular fluorescence (flow cytometry) in E. coli after 12 hours at 25° C., compared to uninduced cells is 75 fold.

On to “N-terminal fragment of the stabilized GFP variant sg100 (Nsg100GFP) fused to antiparallel leucine zipper peptide Z, expressed from pET11a-Z-Nsg100GFP”, for which, in assay [2], the mean cell fluorescence (flow cytometry), 3 hours after induction at 25° C. came to 1.2 fold and the mean cellular fluorescence (flow cytometry) in E. coli after 12 hours at 25° C., compared to uninduced cells worked out at 2.3 fold.
